These results are taken from publication PMC9814621, “Nanoscopic investigation of C9orf72 poly-GA oligomers on nuclear membrane disruption by a photoinducible platform” (Communications Chemistry, 2021).

Data set [1] deals with the molecule itself. Kind of data set: transmission electron microscopy; time course of the probe solution with or without irradiation (ADP-1 50 uM; 365 nm, 32 mW/cm^2, 1 min).
Data set [2] deals with the molecule itself. Kind of data set: fluorescence lifetime imaging microscopy (self-quenching); SH-SY5Y cells treated with 1 uM ADP-2 and photoinitiated; fixed 2, 12 and 24 h after UV.

Ends that are not written are not given here.

B1: GA DPRs fragment photoreleased from ADP-1 [cysteine-(glycine-alanine)12] (peptide)
peptide: CGAGAGAGAGAGAGAGAGAGAGAGA
notes: N-terminal cysteine followed by 12 glycine-alanine repeats; poly-GA dipeptide repeat translated from the G4C2 repeat expansion of C9orf72 (not part of the C9orf72 protein itself); also called (GA)12; ADP-1-derived GA DPRs; source: synthetic peptide (Fmoc chemistry, HPLC purified), released from ADP-1 by 365-nm light; also released inside SH-SY5Y cells treated with ADP-1
For B1, the binding result in data set [1] was “binds”.

B2: Alexa Fluor 488-labelled GA DPRs fragment photoreleased from ADP-2 [Alexa Fluor 488-cysteine-(glycine-alanine)12] (peptide)
peptide: C(Alexa Fluor 488 C5 maleimide)GAGAGAGAGAGAGAGAGAGAGAGA
notes: N-terminal cysteine (labelled) followed by 12 glycine-alanine repeats; poly-GA dipeptide repeat of the C9orf72 repeat expansion; also called AF-488-labeled GA DPRs; ADP-2-derived GA DPRs; source: also released inside SH-SY5Y cells treated with ADP-2
As to B2, in data set [2], the binding result is recorded as “binds”.
